Measured values reported in PMC6262395, “A Rhodococcal Transcriptional Regulatory Mechanism Detects the Common Lactone Ring of AHL Quorum-Sensing Signals and Triggers the Quorum-Quenching Response” (Frontiers in Microbiology, 2018).

Tests used:
[1] = target: T1, QsdR (TetR-family repressor) (Rhodococcus erythropolis R138) (UniProt A0A0C2W9F0); test: EMSA; conditions: LightShift Chemiluminescent EMSA Kit (Thermo Scientific) as per manufacturer, 20 ul reaction; buffer, salt, pH and temperature not stated
T1 sequence: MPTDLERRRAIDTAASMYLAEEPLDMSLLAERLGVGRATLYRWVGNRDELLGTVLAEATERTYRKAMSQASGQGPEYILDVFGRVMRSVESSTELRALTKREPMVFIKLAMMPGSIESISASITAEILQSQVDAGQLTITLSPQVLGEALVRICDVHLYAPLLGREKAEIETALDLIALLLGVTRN

QsdR = target: T2, QsdR (Rhodococcus erythropolis, UniProt A0A0C2W9F0); test: EMSA, release of QsdR from biotin-labelled qsdR-qsdA intergenic DNA; conditions: ligand/QsdR molecule ratio 0.1 to 100; 2 μg His-tagged QsdR, 0.4 ng DNA; effector that relieves DNA binding
T2 construct: gene I3517_23075; full-length qsdR ORF in pET19, His-tagged (tag kept), expressed in E. coli BL21(DE3), Ni-NTA; 186 residues, asymmetric dimer
T2 sequence (A0A0C2W9F0 1-186): T1 sequence

[2] = target: T1, QsdR (TetR-family repressor) (Rhodococcus erythropolis R138); test: competition; conditions: LightShift Chemiluminescent EMSA Kit (Thermo Scientific) as per manufacturer, 20 ul reaction; buffer, salt, pH and temperature not stated

Molecule | binding [1] | other results
GGTAGGCATCGGGACATTCTCTCCGGTTGTCCGGTACTGCACAATTTCGGCGGTCGAACAGAGGTGGGCTTCGGGTGGCTCGAGCCTATTGACGAACCAAGCGACGTGAGACACACTAGCTCATTGTCTCATGTTAGTGATGGCGATCACAGTCAGGGGTTCGATCGATGAG (double strand) | binds | 
N[C@H]1CCOC1=O [HSL, homoserine lactone] |  | EMSA, release of QsdR from biotin-labelled qsdR-qsdA intergenic DNA (QsdR): Addition of increased amounts of HSL induced a proportional increase in free DNA
GGTAGGCATCGGGACATTCTCTCCGGTTGTCCGGTACTGCACAATTTCGGCGGTCGAACAGAGGTGGGCTTCGGGTGGCTCGAGCCTATTGACGAACCAAGCGACGTGAGACACACTAGCTCATTGTCTCATGTTAGTGATGGCGATCACAGTCAGGGGTTCGATCGATGAG (double strand) [unlabeled qsdR-qsdA intergenic competitor] |  | binding [2]: binds
CATTCCTCAAGTGCGCCATCGAAGAACCTGGTCTGACTCCCGGTGTCGAGCGTGTGATGCGAGCGGTCGGTCAGGCGCAGGTCGAAACCGGGGTACCGATCACGGTTCACACGAACCCGCACACGGAATCGGGCCTCGTTGCGCAGAAGGTTCTGGCCGAGGAAGGTGCAGATCTGA (double strand) [qsdA internal fragment (negative control)] | no binding | 
